This is an account of results in article PMC5663815, “Macrophage migration inhibitory factor (MIF) modulates trophic signaling through interaction with serine protease HTRA1” (Cellular and Molecular Life Sciences: CMLS, 2017).

The target of this assay is T1, Recombinant human HTRA1 (R&D Systems, 2916-SE) (human, UniProt Q92743 23-480, RED-NHS dye label (Monolith NT Protein Labeling Kit RED-NHS), molar dye to protein ratio 5:1).
T1 construct: Serine protease HTRA1, human, recombinant, R&D Systems catalogue 2916-SE; In the functional rows the HTRA1 was full-length HTRA1 (pcDNA3) in medium of stably transfected HEK293 cells, not this bought protein; also called labeled HTRA1; source: bought: R&D Systems, 2916-SE
The assay is described as follows: MST; labeled HTRA1 constant at 65 nM, unlabeled MIF titrated 2.28 nM to 1 µM; 50 mM Tris, 0.05% Tween-20, pH 8.0; 20 min at RT, 25 °C; Monolith NT.115, 40% LED, 80% MST power; Thermophoresis + T-jump signal. The conditions noted are these: both partners purified.

T1 sequence (Q92743 23-480): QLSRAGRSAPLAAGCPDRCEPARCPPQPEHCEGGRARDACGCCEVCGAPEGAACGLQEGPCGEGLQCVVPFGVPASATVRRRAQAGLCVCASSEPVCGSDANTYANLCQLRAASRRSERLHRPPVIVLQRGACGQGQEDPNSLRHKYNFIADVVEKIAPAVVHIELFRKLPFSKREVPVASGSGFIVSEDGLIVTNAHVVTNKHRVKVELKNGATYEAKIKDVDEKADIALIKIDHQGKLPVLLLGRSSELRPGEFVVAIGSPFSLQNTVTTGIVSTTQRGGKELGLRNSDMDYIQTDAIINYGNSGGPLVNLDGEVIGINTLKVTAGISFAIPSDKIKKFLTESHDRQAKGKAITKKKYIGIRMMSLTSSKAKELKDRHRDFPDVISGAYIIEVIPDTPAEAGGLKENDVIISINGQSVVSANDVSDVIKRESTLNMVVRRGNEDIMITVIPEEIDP

B1: MIF (Pepro-Tech, 300-69) (natural protein, UniProt P14174 1-115, looked up)
chain: MPMFIVNTNVPRASVPDGFLSELTQQLAQATGKPPQYIAVHVVPDQLMAFGGSSEPCALCSLHSIGKIGGAQNRSYSKLLCGLLAERLRISPDRVYINYYDMNAANVGWNNSTFA
notes: also called unlabeled MIF; non-labeled MIF; source: bought: Pepro-Tech, 300-69
For orientation: Kd means the concentration at which binding is half-saturated. For the molecule B1, the Kd came to 147 nM.
